Columns and labels:
[1] = target: Clostridium oremlandii methionine sulfoxide reductase A, Sec-to-Cys form (Clostridium oremlandii (strain OhILAs)); assay: non-reducing SDS-PAGE; time course, 84 μM MsrA with 0.2 mM free methionine sulfoxide; dimer ratios by ImageJ, fitted with Prism 5
[2] = target: Clostridium oremlandii methionine sulfoxide reductase A, Sec-to-Cys form (Clostridium oremlandii (strain OhILAs)); assay: non-reducing SDS-PAGE; series of MsrA concentrations, 2 h with 0.2 mM free methionine sulfoxide; dimer ratios by ImageJ, fitted with Prism 5

Substance “Clostridium oremlandii methionine sulfoxide reductase A, Sec-to-Cys form (enzyme)” has a D1/2 (reaction time to reach half Dmax) [1] of 5.8 min, a D1/2 (concentration of MsrA to reach half Dmax) [2] of 7.6 µM and a Dmax (maximal percent of dimer) [2] of 98%.

From PMC4479559
